# T1: mouse Bright, native (untagged) wild-type (mouse) (UniProt Q62431)
# T1 sequence (looked up): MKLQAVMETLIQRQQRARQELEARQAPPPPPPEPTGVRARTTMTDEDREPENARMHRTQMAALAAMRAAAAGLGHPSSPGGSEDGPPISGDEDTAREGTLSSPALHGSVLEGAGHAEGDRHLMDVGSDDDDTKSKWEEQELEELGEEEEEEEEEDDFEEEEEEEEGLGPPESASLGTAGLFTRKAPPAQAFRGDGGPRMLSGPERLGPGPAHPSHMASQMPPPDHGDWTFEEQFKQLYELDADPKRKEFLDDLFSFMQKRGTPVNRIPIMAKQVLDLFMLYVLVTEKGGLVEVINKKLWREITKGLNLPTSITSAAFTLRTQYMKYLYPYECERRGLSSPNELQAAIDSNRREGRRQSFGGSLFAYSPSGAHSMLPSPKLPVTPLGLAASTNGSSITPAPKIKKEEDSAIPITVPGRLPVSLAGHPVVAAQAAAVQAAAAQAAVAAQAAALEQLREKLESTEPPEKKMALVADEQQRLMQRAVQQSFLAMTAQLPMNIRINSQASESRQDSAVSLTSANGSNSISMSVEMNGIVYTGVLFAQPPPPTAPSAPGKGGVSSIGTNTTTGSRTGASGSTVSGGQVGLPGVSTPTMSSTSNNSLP
# B1: mouse Bright, native (untagged) wild-type (other, UniProt Q62431 1-601, looked up)
# chain: MKLQAVMETLIQRQQRARQELEARQAPPPPPPEPTGVRARTTMTDEDREPENARMHRTQMAALAAMRAAAAGLGHPSSPGGSEDGPPISGDEDTAREGTLSSPALHGSVLEGAGHAEGDRHLMDVGSDDDDTKSKWEEQELEELGEEEEEEEEEDDFEEEEEEEEGLGPPESASLGTAGLFTRKAPPAQAFRGDGGPRMLSGPERLGPGPAHPSHMASQMPPPDHGDWTFEEQFKQLYELDADPKRKEFLDDLFSFMQKRGTPVNRIPIMAKQVLDLFMLYVLVTEKGGLVEVINKKLWREITKGLNLPTSITSAAFTLRTQYMKYLYPYECERRGLSSPNELQAAIDSNRREGRRQSFGGSLFAYSPSGAHSMLPSPKLPVTPLGLAASTNGSSITPAPKIKKEEDSAIPITVPGRLPVSLAGHPVVAAQAAAVQAAAAQAAVAAQAAALEQLREKLESTEPPEKKMALVADEQQRLMQRAVQQSFLAMTAQLPMNIRINSQASESRQDSAVSLTSANGSNSISMSVEMNGIVYTGVLFAQPPPPTAPSAPGKGGVSSIGTNTTTGSRTGASGSTVSGGQVGLPGVSTPTMSSTSNNSLP
# notes: range 1-601; Untagged protein, tested in three forms: expressed in CHO cells, in vitro translated, or endogenous in the mouse B cell lines BCg3R-1d and M12g3Ri; Found as a dimer in solution by size exclusion chromatography; also called native Bright; wild-type Bright
# Tests used:
# [1] = molecular target: mouse Bright, wild-type, C-terminal myc-his tagged (mouse) (UniProt Q62431); test: cell-based or functional assay
# [2] = molecular target: T1, mouse Bright, native (untagged) wild-type (mouse); test: cell-based or functional assay
# [3] = molecular target: human Btk, endogenous in the B cell lines CL01 and 300212 (human, UniProt Q06187 2-659); test: EMSA supershift with anti-Btk, nuclear extracts of CL01 and 300212 cells
# Chain of human Btk, endogenous in the B cell lines CL01 and 300212 (Q06187 2-659 limits assumed): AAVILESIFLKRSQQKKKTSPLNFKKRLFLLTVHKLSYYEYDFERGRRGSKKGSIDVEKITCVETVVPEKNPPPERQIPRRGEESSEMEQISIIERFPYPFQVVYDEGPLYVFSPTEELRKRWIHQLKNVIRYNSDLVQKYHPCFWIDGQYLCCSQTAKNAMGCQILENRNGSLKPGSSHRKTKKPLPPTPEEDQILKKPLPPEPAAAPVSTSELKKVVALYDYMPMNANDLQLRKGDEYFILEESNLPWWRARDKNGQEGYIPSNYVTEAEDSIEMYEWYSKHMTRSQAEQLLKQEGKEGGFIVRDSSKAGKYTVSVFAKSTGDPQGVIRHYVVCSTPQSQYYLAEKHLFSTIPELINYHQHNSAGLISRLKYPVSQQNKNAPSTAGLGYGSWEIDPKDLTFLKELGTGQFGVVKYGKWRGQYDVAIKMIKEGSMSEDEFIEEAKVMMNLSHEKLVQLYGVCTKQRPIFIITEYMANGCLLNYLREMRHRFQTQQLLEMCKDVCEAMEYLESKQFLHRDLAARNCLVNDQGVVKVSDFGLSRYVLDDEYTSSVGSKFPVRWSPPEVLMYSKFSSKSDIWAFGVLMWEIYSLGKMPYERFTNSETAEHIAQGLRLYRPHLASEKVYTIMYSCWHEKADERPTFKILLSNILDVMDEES
# Description: FIG. 7—Btk associates with Bright in a subset of DNA-bound complexes. Mobility-shift assays were performed with nuclear extracts from two B cell lines (CL01 and 300212) and the T cell line, Molt-4. Anti-sera to CDP or the pleckstrin domain of Btk was added as in FIG. 2A-D. In some cases the anti-Btk sera was diluted 1:10 with PBS (0.1) prior to addition. Data are representative of six experiments.
# Electrophoretic mobility shift assays (EMSAs). Nuclear extracts were prepared by hypotonic lysis, protein concentrations were quantified with Bradford reagents (BioRad, Richmond, Calif.), and EMSAs were performed in 4% nondenaturing acrylamide gels after incubation for 15 min at 37° C. with gamma-³²P-labeled probe, as previously described (Buchanan et al., 1995). The prototypic Bright binding site (a 150 base pair Bam HI-Fok I fragment called bf150) from the S107 V1 5′ flanking sequence (Webb et al., 1991) was used as a probe. In some instances, antibodies were added 5 min before incubation with the probe. […] A double-stranded oligo containing the 45 base pair foot-printed Bright binding site within bf150 described in Webb et al. (1991) was used as a specific competitor in increasing concentrations and a mutated version of that oligonucleotide containing the double-stranded sequence corresponding to 5′-[…]-3′ (SEQ ID NO:6) was used as a non-specific competitor. […]
# [4] = molecular target: the molecule itself; test: size exclusion chromatography of nuclear extracts, western blot of fractions
# Description: (§1) FIGS. 11A-B—Tagged Bright proteins dimerize with native Bright. (FIG. 11A) Nuclear extracts from cells expressing Bright protein were subjected to size exclusion chromatography and protein fractions were analyzed for Bright by western blotting (lower panel). Data are presented graphically relative to molecular weight standards in the upper panel and are representative of four experiments. (FIG. 11B) C-terminal myc-his tagged Bright was either singly or coexpressed in CHO cells with native Bright. […] Immunoprecipitations using anti-myc Ab (middle panel) and anti-Sp1 as an isotype control (bottom panel) were performed with each of the transfected extracts and developed with anti-Bright reagents. Arrows indicate immunoglobulin heavy chain cross-reactive with the secondary reagent. Data are representative of two separate experiments.
# Column chromatography. Nuclear extracts from CHO cells transfected with the full-length Bright expression plasmid (Herrscher et al., 1995) were centrifuged at 10,000×g to remove aggregates and applied to a pre-calibrated Bio-Gel A 0.5 m size exclusion column (Bio-Rad, Hercules, Calif.) in 0.05 M Tris-HCl, pH 8.0, 0.1 M KCl and 20% glycerol according to the manufacturer's directions. The column was calibrated before and after use with Bio-Rad gel filtration standards to ensure maintenance of column integrity. […]
# [5] = molecular target: B1; test: co-expression in CHO cells, anti-myc immunoprecipitation, anti-Bright blot
# Description: as §1
# To determine if the mutated proteins formed heterodimers with wild-type Bright, his-myc-tagged mutant forms of Bright were co-expressed in CHO cells with native wild-type Bright. Tagged proteins were distinguished from native Bright by the slight size differences in western blots (FIG. 11B) and were confirmed using anti-tag antibodies (not shown). Anti-myc antibodies were used to immunoprecipitate the tagged proteins and blots were developed with anti-Bright (FIG. 11B). In every case, a lower molecular weight band was detected that reflected the presence of native Bright.
Molecule,binding result [5],also measured
Btk xid mutant (R28C) (enzyme),–,"V1 transcription relative to wild-type Btk (Real Time PCR, CHO cells) [1]: 50%"
"Bruton's tyrosine kinase (Btk), wild-type, ectopically expressed or recombinant (enzyme)",–,"Bright DNA-binding activity remaining after competitor DNA (EMSA, in vitro translated Bright plus recombinant Btk) [2]: < 50 % reduction"
"human Bright (B cell regulator of IgH transcription) (other, Transcription factor; Tested as in vitro translated protein from a full-length clone, and as endogenous protein in nuclear extracts of the human cell lines CL01, K562 and 300212; also called Dril 1; DRIL1) MKLQAVMETLLQRQQRARQELEARQQLPPDPPAAPPGRARAAPDEDREPESARMQRAQMAALAAMRAAAAGLGHPASPGGSEDGPPGSEEEDAAREGTPGSPGRGREGPGEEHFEDMASDEDMKPKWEEEEMEEDLGEDEEEEEEDYEDEEEEEDEEGLGPPGPASLGTTALFPRKAQPPQAFRGDGVPRVLGGQERPGPGPAHPGGAAHVAPQLQPPDHGDWTYEEQFKQLYELDGDPKRKEFLDDLFSFMQKRGTPVNRIPIMAKQVLDLFMLYVLVTEKGGLVEVINKKLWREITKGLNLPTSITSAAFTLRTQYMKYLYPYECEKRGLSNPNELQAAIDSNRREGRRQSFGGSLFAYSPGGAHGMLSSPKLPVSSLGLAASTNGSSITPAPKIKKEEDSAIPITVPGRLPVSLAGHPVVAAQAAAVQAAAAQAAVAAQAAALEQLREKLESAEPPEKKMALVADEQQRLMQRALQQNFLAMAAQLPMSIRINSQASESRQDSAVNLTGTNGSNSISMSVEINGIMYTGVLFAQPPAPTPTSAPNKGGGGGGGSSSNAGGRGGNTGTSGGQAGPAGLSTPSTSTSNNSLP",–,binding result [3]: binds
B1,–,binding result [4]: binds
"mouse Bright W299A, C-terminal myc-his tagged (other, UniProt Q62431 1-601, looked up, range 1-601; not shown: C-terminal myc-his tag from vector pcDNA4/TO/myc-His B) MKLQAVMETLIQRQQRARQELEARQAPPPPPPEPTGVRARTTMTDEDREPENARMHRTQMAALAAMRAAAAGLGHPSSPGGSEDGPPISGDEDTAREGTLSSPALHGSVLEGAGHAEGDRHLMDVGSDDDDTKSKWEEQELEELGEEEEEEEEEDDFEEEEEEEEGLGPPESASLGTAGLFTRKAPPAQAFRGDGGPRMLSGPERLGPGPAHPSHMASQMPPPDHGDWTFEEQFKQLYELDADPKRKEFLDDLFSFMQKRGTPVNRIPIMAKQVLDLFMLYVLVTEKGGLVEVINKKLAREITKGLNLPTSITSAAFTLRTQYMKYLYPYECERRGLSSPNELQAAIDSNRREGRRQSFGGSLFAYSPSGAHSMLPSPKLPVTPLGLAASTNGSSITPAPKIKKEEDSAIPITVPGRLPVSLAGHPVVAAQAAAVQAAAAQAAVAAQAAALEQLREKLESTEPPEKKMALVADEQQRLMQRAVQQSFLAMTAQLPMNIRINSQASESRQDSAVSLTSANGSNSISMSVEMNGIVYTGVLFAQPPPPTAPSAPGKGGVSSIGTNTTTGSRTGASGSTVSGGQVGLPGVSTPTMSSTSNNSLP",binds,–
"mouse Bright F317A, C-terminal myc-his tagged (other, UniProt Q62431 1-601, looked up, range 1-601; not shown: C-terminal myc-his tag from vector pcDNA4/TO/myc-His B) MKLQAVMETLIQRQQRARQELEARQAPPPPPPEPTGVRARTTMTDEDREPENARMHRTQMAALAAMRAAAAGLGHPSSPGGSEDGPPISGDEDTAREGTLSSPALHGSVLEGAGHAEGDRHLMDVGSDDDDTKSKWEEQELEELGEEEEEEEEEDDFEEEEEEEEGLGPPESASLGTAGLFTRKAPPAQAFRGDGGPRMLSGPERLGPGPAHPSHMASQMPPPDHGDWTFEEQFKQLYELDADPKRKEFLDDLFSFMQKRGTPVNRIPIMAKQVLDLFMLYVLVTEKGGLVEVINKKLWREITKGLNLPTSITSAAATLRTQYMKYLYPYECERRGLSSPNELQAAIDSNRREGRRQSFGGSLFAYSPSGAHSMLPSPKLPVTPLGLAASTNGSSITPAPKIKKEEDSAIPITVPGRLPVSLAGHPVVAAQAAAVQAAAAQAAVAAQAAALEQLREKLESTEPPEKKMALVADEQQRLMQRAVQQSFLAMTAQLPMNIRINSQASESRQDSAVSLTSANGSNSISMSVEMNGIVYTGVLFAQPPPPTAPSAPGKGGVSSIGTNTTTGSRTGASGSTVSGGQVGLPGVSTPTMSSTSNNSLP",binds,–
"mouse Bright Y330A, C-terminal myc-his tagged (other, UniProt Q62431 1-601, looked up, range 1-601; not shown: C-terminal myc-his tag from vector pcDNA4/TO/myc-His B) MKLQAVMETLIQRQQRARQELEARQAPPPPPPEPTGVRARTTMTDEDREPENARMHRTQMAALAAMRAAAAGLGHPSSPGGSEDGPPISGDEDTAREGTLSSPALHGSVLEGAGHAEGDRHLMDVGSDDDDTKSKWEEQELEELGEEEEEEEEEDDFEEEEEEEEGLGPPESASLGTAGLFTRKAPPAQAFRGDGGPRMLSGPERLGPGPAHPSHMASQMPPPDHGDWTFEEQFKQLYELDADPKRKEFLDDLFSFMQKRGTPVNRIPIMAKQVLDLFMLYVLVTEKGGLVEVINKKLWREITKGLNLPTSITSAAFTLRTQYMKYLYPAECERRGLSSPNELQAAIDSNRREGRRQSFGGSLFAYSPSGAHSMLPSPKLPVTPLGLAASTNGSSITPAPKIKKEEDSAIPITVPGRLPVSLAGHPVVAAQAAAVQAAAAQAAVAAQAAALEQLREKLESTEPPEKKMALVADEQQRLMQRAVQQSFLAMTAQLPMNIRINSQASESRQDSAVSLTSANGSNSISMSVEMNGIVYTGVLFAQPPPPTAPSAPGKGGVSSIGTNTTTGSRTGASGSTVSGGQVGLPGVSTPTMSSTSNNSLP",binds,–
"mouse Bright double point mutant (W299A and Y330A), C-terminal myc-his tagged (other, UniProt Q62431 1-601, looked up, range 1-601; also called DP; DP Bright; not shown: C-terminal myc-his tag from vector pcDNA4/TO/myc-His B) MKLQAVMETLIQRQQRARQELEARQAPPPPPPEPTGVRARTTMTDEDREPENARMHRTQMAALAAMRAAAAGLGHPSSPGGSEDGPPISGDEDTAREGTLSSPALHGSVLEGAGHAEGDRHLMDVGSDDDDTKSKWEEQELEELGEEEEEEEEEDDFEEEEEEEEGLGPPESASLGTAGLFTRKAPPAQAFRGDGGPRMLSGPERLGPGPAHPSHMASQMPPPDHGDWTFEEQFKQLYELDADPKRKEFLDDLFSFMQKRGTPVNRIPIMAKQVLDLFMLYVLVTEKGGLVEVINKKLAREITKGLNLPTSITSAAFTLRTQYMKYLYPAECERRGLSSPNELQAAIDSNRREGRRQSFGGSLFAYSPSGAHSMLPSPKLPVTPLGLAASTNGSSITPAPKIKKEEDSAIPITVPGRLPVSLAGHPVVAAQAAAVQAAAAQAAVAAQAAALEQLREKLESTEPPEKKMALVADEQQRLMQRAVQQSFLAMTAQLPMNIRINSQASESRQDSAVSLTSANGSNSISMSVEMNGIVYTGVLFAQPPPPTAPSAPGKGGVSSIGTNTTTGSRTGASGSTVSGGQVGLPGVSTPTMSSTSNNSLP",binds,–

# Source: US20050271651A1, “Inhibition of bright function as a treatment for excessive immunoglobulin production” (Oklahoma Medical Research Foundation, published 2005)
